Experimental findings from the RNAGym collection of RNA variant scans (doi:10.7554/elife.80360) are described below.

The chains are these.
B1: HDV Ribozyme (parent)
chain: GGCCGGCAUGGUCCCAGCCUCCUCGCUGGCGCCGGCUGGGCAACAUUCCGAGGGGACCGUCCCCUCGGUAAUGGCGAAUGGGACCCA

The variants in the data set derive from B1. The experiment in a line: self-cleavage, relative activity (ratio to wild type); higher = more cleavage; co-transcriptional.
For C15U U46G, the self-cleavage was 0.499. For the variant A16G C36A, the self-cleavage turned out to be 0.229. The figure for A16G C24G is 0.178. As for A16G G31C, the self-cleavage came out at 0.208. As to C15A U20C, the self-cleavage is 0.135. The figure for C15A A45C is 0.151. The figure for C15A A45G is 0.8; for C15A C32U it is 0.314; for A16C G50C it is 0.959. The figure for A16C A71U is 0.623; for A16C A71G it is 0.7. As to C15A C26U, the self-cleavage stood at 0.895. The figure for C14U C85U is 0.831; for C14U C85G it is 0.712; for A16C G82U it is 0.201. The figure for C15U A87C is 1.03. Take C15U C18A: the self-cleavage stood at 0.0639. The value for C15U C84G was 0.635; that for C15U C84U was 0.962; that for A16G G39C was 0.0791. The value for C15U U65A was 0.831; that for A16C U23G was 0.688; that for C15U G80C was 0.177. The figure for C15U U47C is 0.779; for C15U U47G it is 0.89; for C14U G59C it is 1.01.

For the variant C14U U69C, the self-cleavage came to 1.4. The figure for A16G G74A is 0.404; for A16G G74C it is 0.435.

In the case of A16U A70G, the self-cleavage came to 0.855.

Turning to A16U A70C, the self-cleavage is 0.538. The value for C15G G25A was 0.161; that for A16C C18G was 0. The figure for C15A U65G is 0.653.

A16G C58U: the self-cleavage turned out to be 0.962. C15G C48G: the self-cleavage amounted to 0.739. The figure for A16C G40C is 0.201; for C15G U72A it is 0.0875; for C15A C30U it is 0.104. The figure for C15A U37G is 0.0755; for C14U U79C it is 0.259. The figure for C15U C66A is 1.11. On to A16G A51C, for which the self-cleavage is 1.05. The figure for C15U C63U is 0.914; for C15A G31A it is 0.16.

As for C15A G31C, the self-cleavage amounted to 0.

In the case of C15A G17U, the self-cleavage came to 0.252.

For the variant C15A G17A, the self-cleavage turned out to be 0.302. For the variant C15G G50U, the self-cleavage worked out at 0.598. The value for C15G G50C was 0.575; that for A16C U65C was 0.256. The value for A16C U20G was 0; that for C14U G28U was 0.285; that for A16G U65G was 1.01. A16G U65A: the self-cleavage stood at 0.974.

As for C15U C36U, the self-cleavage was 0.886. The figure for C15G G40C is 0.271. The figure for C14U U37C is 1.32; for A16C G55A it is 0.554; for C15A G59A it is 0.543.

For C15A G59U, the self-cleavage was determined as 0.623. C15A A71U: the self-cleavage stood at 0.802. Regarding C14U G76C, the self-cleavage was found to be 1.06. Consider C15G C49U, for which the self-cleavage was 0.554. The figure for C15U C33U is 0.708; for A16U A51C it is 0.923; for A16U A51U it is 0.914. The value for C15A A42U was 0.269. Turning to C15A A78C, the self-cleavage was 0.0652. As to A16C C84G, the self-cleavage was determined as 0.87. For A16C C84A, the self-cleavage was 0.655. For C15G A70C, the self-cleavage is 0.776. Turning to A16C A77G, the self-cleavage was 0.831. As to A16G G54A, the self-cleavage is 0.727. The value for A16G C57U was 1.14. The value for A16G C57G was 1.2. The value for C15G A77G was 0.332; that for C15G A77U was 0.158. For the variant C15G C30G, the self-cleavage was found to be 0.317. For C15G, the self-cleavage is 0.663. On to C15A, for which the self-cleavage was 0.698. The value for C15U was 0.965; that for C15A G54C was 0.806.

With A16C G67U, the self-cleavage was found to be 1.17. The value for A16C G67C was 0.692; that for C14U G25C was 0.199; that for C15G A42G was 0.166. The value for C15G A42C was 0.0755; that for C15G A42U was 0.0504. Take C15U G67A: the self-cleavage came out at 0.808. For the variant C15U G67U, the self-cleavage was 0.972. For C15U G67C, the self-cleavage turned out to be 0.883. With C15U C75A, the self-cleavage stood at 0.0326. Regarding C15U C75U, the self-cleavage amounted to 0.227. The figure for C15U C64G is 0.962.

C14U C44G: the self-cleavage was 0.7. The value for A16G C64A was 0.782; that for C14U G82A was 0.323; that for C15A G82U was 0.232. As for C15U G54U, the self-cleavage was 0.901.

C15A U79A: the self-cleavage is 0.519. C15G C44G: the self-cleavage was determined as 0.434.

Take A16G G73C: the self-cleavage came out at 0.431. The figure for A16G G73A is 0.396. The figure for A16G G50A is 1.4; for A16G G76C it is 1.12; for C15A A43C it is 0.0554. Turning to C15A A43G, the self-cleavage worked out at 0.323. Take A16C A42U: the self-cleavage was 0.208. The figure for C15A C84A is 0.539; for C15A C48G it is 0.475. The value for C14U G50U was 1.09. C14U G50C: the self-cleavage is 1.11. The value for A16C G38C was 0. The value for C15A U27C was 0.277; that for C15A U27A was 0.594. Consider C15G A45U, for which the self-cleavage amounted to 0.594.

As to C15U G50A, the self-cleavage came out at 1.08. Turning to A16C G68C, the self-cleavage came to 0.748.

For the variant A16C G68U, the self-cleavage is 0.697. The value for A16G G52A was 0.975; that for A16G G80U was 0.208; that for C15U G53C was 0.956. The value for C15A C44A was 0.529; that for C15U U72A was 0.485; that for C15G A87C was 0.799. For A16C C63A, the self-cleavage was 0.942.

As for A16C C22A, the self-cleavage came to 0.0594. The figure for A16C C22U is 0.369; for C15A C61G it is 0.508. For the variant C14U G81A, the self-cleavage was 1.32. The figure for A16C A78G is 0.361; for C15G A71G it is 0.727; for A16C G53U it is 0.755.

As for C15U G68A, the self-cleavage turned out to be 0.759.

Turning to C15U G68U, the self-cleavage was 0.88. In the case of C15U C26U, the self-cleavage is 1.2. The value for A16C U27C was 0.293. For C15U A77U, the self-cleavage was 0.246. For the variant C14U G40C, the self-cleavage worked out at 0.391.

Turning to A16C C86A, the self-cleavage is 0.692.

As to C14U G35A, the self-cleavage is 0.631. Consider A16C G59A, for which the self-cleavage amounted to 0.649. Take A16U A43U: the self-cleavage came to 0.443. Take C15U A71U: the self-cleavage was 0.598. The value for C15U C58G was 1.36; that for C15U C58U was 0.811.

C15G G54A: the self-cleavage stood at 0.534. For the variant C15A G34C, the self-cleavage was 0.256. The figure for C15A G34U is 0; for C14U G54U it is 1.23. The value for C15U U27C was 0.712. The figure for A16G C30G is 0.122; for A16G C30A it is 0.702; for C15G C58G it is 0.612.

On to C15A G76A, for which the self-cleavage was 0.712. Take C15A G35U: the self-cleavage was determined as 0.188. The value for C14U C57G was 0.787; that for C14U C57U was 0.878; that for C15A C62A was 0.677.

As for C15A C62G, the self-cleavage is 0.499. Regarding C15A C62U, the self-cleavage was 0.764. The figure for C15U C32G is 0.0489; for C15G A78G it is 0. The figure for A16C A51U is 0.935; for A16G G55A it is 0.943.

For the variant C15U C41G, the self-cleavage worked out at 0.475.
